Series [1] in a line: 35S-Cys pulse-chase, immunoprecipitation from COS-1 media. Conditions: glycan lost; control: wild type.
Series [2] in a line: immunofluorescence, LAMP-1 co-staining, transfected cells. Conditions: glycan lost; control: wild type.
The nature of series [3]: 4-MU-6S-Palm-βGlc fluorometric assay, COS-1 lysates. Conditions: glycan lost; control: wild type.
For a further series, the target named is T1, PPT1 F85del, P50897.
T1 chain: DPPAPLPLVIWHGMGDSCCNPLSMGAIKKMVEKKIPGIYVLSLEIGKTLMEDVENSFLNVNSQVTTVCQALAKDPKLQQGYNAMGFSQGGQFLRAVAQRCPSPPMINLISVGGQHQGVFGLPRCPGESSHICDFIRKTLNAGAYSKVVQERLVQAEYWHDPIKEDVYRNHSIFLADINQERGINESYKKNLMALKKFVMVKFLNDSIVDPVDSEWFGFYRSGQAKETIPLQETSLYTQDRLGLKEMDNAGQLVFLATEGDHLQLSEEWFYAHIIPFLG
In words: GFP pull-down (co-immunoprecipitation with anti-GFP-agarose beads, anti-PPT1 immunoblot, quantified). Conditions: chain shown with the change; COS-1 cells, lysed 48 h post-transfection; single experiment; parent: est. 100; read off a plot. Background: In western blotting, separated proteins are transferred to a membrane and probed.

Here are results for 5 molecules from PMC1906764.

B1: palmitoyl protein thioesterase 1 (PPT1): S214A (protein)
parent chain: MASPGCLWLLAVALLPWTCASRALQHLDPPAPLPLVIWHGMGDSCCNPLSMGAIKKMVEKKIPGIYVLSLEIGKTLMEDVENSFFLNVNSQVTTVCQALAKDPKLQQGYNAMGFSQGGQFLRAVAQRCPSPPMINLISVGGQHQGVFGLPRCPGESSHICDFIRKTLNAGAYSKVVQERLVQAEYWHDPIKEDVYRNHSIFLADINQERGINESYKKNLMALKKFVMVKFLNDSIVDPVDSEWFGFYRSGQAKETIPLQETSLYTQDRLGLKEMDNAGQLVFLATEGDHLQLSEEWFYAHIIPFLG
On to B1, for which, in series [1], the expression_or_secretion result was “no change”. Further, the localisation_or_trafficking result in series [2] is “no change”. In addition, the enzymatic activity, percent of wt in series [3] worked out at 31%.

B2: palmitoyl protein thioesterase 1 (PPT1): S199A (protein)
parent chain: B1 parent chain
Consider B2, for which the expression_or_secretion entry in series [1] was “abolishes”. Besides, the localisation_or_trafficking entry in series [2] is “decreases”.

B3: palmitoyl protein thioesterase 1 (PPT1): S199A + S214A (protein)
parent chain: B1 parent chain
As for B3, the expression_or_secretion result in series [1] is “abolishes”. For the same molecule, in series [3], the “enzymatic_activity, percent_of_wt” value is given as “decreases”.

B4: palmitoyl protein thioesterase 1 (PPT1): S234A (protein)
parent chain: B1 parent chain
As for B4, in series [1], the expression_or_secretion result is given as “decreases”. For the same molecule, the localisation_or_trafficking result in series [2] is “decreases”.

B5: palmitoyl protein thioesterase 1 (PPT1), wild type, P50897 F85del (protein)
chain: T1 chain
As to B5, in the series with PPT1 F85del, P50897, the percent of parent is 150 % of WT.
